# Measured values published in paper doi:10.1101/2024.10.04.616715 (bioRxiv, 2024).
# B1: human XPR1 (Xenotropic and Polytropic Retrovirus Receptor 1) (natural protein, UniProt Q9UBH6 1-696, looked up)
# chain: MKFAEHLSAHITPEWRKQYIQYEAFKDMLYSAQDQAPSVEVTDEDTVKRYFAKFEEKFFQTCEKELAKINTFYSEKLAEAQRRFATLQNELQSSLDAQKESTGVTTLRQRRKPVFHLSHEERVQHRNIKDLKLAFSEFYLSLILLQNYQNLNFTGFRKILKKHDKILETSRGADWRVAHVEVAPFYTCKKINQLISETEAVVTNELEDGDRQKAMKRLRVPPLGAAQPAPAWTTFRVGLFCGIFIVLNITLVLAAVFKLETDRSIWPLIRIYRGGFLLIEFLFLLGINTYGWRQAGVNHVLIFELNPRSNLSHQHLFEIAGFLGILWCLSLLACFFAPISVIPTYVYPLALYGFMVFFLINPTKTFYYKSRFWLLKLLFRVFTAPFHKVGFADFWLADQLNSLSVILMDLEYMICFYSLELKWDESKGLLPNNSEESGICHKYTYGVRAIVQCIPAWLRFIQCLRRYRDTKRAFPHLVNAGKYSTTFFMVTFAALYSTHKERGHSDTMVFFYLWIVFYIISSCYTLIWDLKMDWGLFDKNAGENTFLREEIVYPQKAYYYCAIIEDVILRFAWTIQISITSTTLLPHSGDIIATVFAPLEVFRRFVWNFFRLENEHLNNCGEFRAVRDISVAPLNADDQTLLEQMMDQDDGVRNRQKNRSWKYNQSISLRRPRLASQSKARDTKVLIEDTDDEANT
# Molecular target: the molecule itself
# Test: cryo-EM structure
protein,measurement,value
B1,stoichiometry N,2
